According to patent publication EP4755920A1 (Simcere Pharmaceutical Co., Ltd., dated 2026):
Changes are numbered by the printed parent chain.

B1: IL4R-CHI-17 (antibody, V domains shown)
VH: QAYLQQSGAELVRPGASVKMSCKASGYTFTSYNMHWAKQTPRQGLEWIGSIYPGNGDTSYNQKFKGKATLTVDKSSSTAYMQLSSLTSEDSAVYFCARGGRLRRGDWFAYWGQGTLVTVSA
VL: DIQMTQSPASLSASVGETVTITCRASENIYSYLIWYQQKQGKSPQLLVYDAKTLAEGVPSRFSGSGSGSQFSLKINSLQPEDFGTYYCQHHYGTPLTFGGGTKLELK
notes: Chimeric IgG: murine variable regions on human IgG4 CH1-CH2-CH3 and human kappa constant regions; also called anti-IL4Rα chimeric antibody 17
B2: IL4R-CHI-14 (antibody, V domains shown)
VH: EVMLVESGGGLVKPGGSLKLSCAASGFTFSSYAMSWVRQTPEKRLEWVAIISGGGDSTYYPDSVKGRFTISRDNAKNTLYLQMSSLRSEDTALYFCARLHYWYFDFWGTGTTVTVSS
VL: DIQMTQSSSSFSVSLGDRVTITCKASEDLYNRLAWYQQKPGNAPRLLISGATSLETGVPSRFSGSGSGRDYTLIITSLQTEDVATYYCQQYWRNPYTFGGGTKLEIK
notes: Chimeric IgG: murine variable regions on human IgG4 CH1-CH2-CH3 and human kappa constant regions; also called anti-IL4Rα chimeric antibody 14
B3: IL4R-CHI-13 (antibody, V domains shown)
VH: EVQLQQSGPVLVKPGASVKMSCKASGYTFTDYYMNWVKQRHGKSLDWIGTINPYNGGTGYNQKFKGKATLTVDKSSSTAYMELNSLTSEDSAVYFCARSLLRRRGAMDYWGQGTSVTVSS
VL: DIVLTQSPASLVVSLGQRATISCRASKSVSTSGYGYIHWYRQKPGQPPKLLIYLVSNLESGVPARFSGSGSGTDFTLNIHPVEEEDAATYYCQHIRELYTFGGGTKLEIK
notes: Chimeric IgG: murine variable regions on human IgG4 CH1-CH2-CH3 and human kappa constant regions; also called anti-IL4Rα chimeric antibody 13
B4: IL4R-CHI-04 (antibody, V domains shown)
VH: DVQLQESGPGLVKPSQSLSLTCTVTGYSITSDYAWNWIRQFPGNKLEWMGYISYSGSSSYNPSLKSRISITRDTSKNQFFLQLNSVTTDDTATYYCAGGGLRRRGLFDYWGQGTTLTVSS
VL: QIVLSQSPAILSASPGEKVTMTCRATSSVTYMHWYQQKPGSSPKPWIYATSNLASGVPARFSGSGSGTSYSLTISRVEAEDTATYYCQQWSSIPLTFGAGTKLELK
notes: Chimeric IgG: murine variable regions (from hybridoma IL4R-SFM-04) on human IgG4 CH1-CH2-CH3 and human kappa constant regions; also called anti-IL4Rα chimeric antibody 04
B5: IL4R-CHI-18 (antibody, V domains shown)
VH: QVQLKQSGPGLVQPSQSLSVTCTVSGFSLTNYGVHWVRQSPGKGLEWLGVIWSGGSTDYNAAFKSRLSISKDNSKSQVFFKMNSLQADDTAIYYCARNKGTRPVFDYWGQGTTLTVSS
VL: DIQMTQSPASLSASVGETVTITCRASENIYSYLAWYQQKQGKSPQLLVYNAKTLAEGVPSRFSGSGSGTQFSLKINSLQPEDFGSYYCQHYVSPLTFGAGTKLEVK
notes: Chimeric IgG: murine variable regions on human IgG4 CH1-CH2-CH3 and human kappa constant regions; also called anti-IL4Rα chimeric antibody 18
B6: IL4R-CHI-07 (antibody, V domains shown)
VH: QVQLQQSGAELVKPGASVKLSCKASGYTFTEYTIHWVKQRSGQGLEWIGWFYPGRGSIKYNEKFKDKATLTADKSSSTVYMELSRLTSEDSAVYFCTRHEYRGSNYAMDYWGQGTSVTVSS
VL: DVLMTQTPLSLPVSLGDQASISCRSSQSIVHSSGNTYLQWYLQKPGQSPKLLIYKVSNRFSGVPDRFSGSGSGTDFTLKISRVEAEDLGVYYCFQGSHVPPTFGGGTKLEIK
notes: Chimeric IgG: murine variable regions on human IgG4 CH1-CH2-CH3 and human kappa constant regions; also called anti-IL4Rα chimeric antibody 07
B7: IL4R-hum-18H5L1 (antibody, V domains shown)
VH: EVTLKESGPVLVKPTETLTLTCTVSGFSLTNYGVHWIRQPPGKALEWLGVIWSGGSTDYNAAFKSRLTISKDNSKSQVVLTMTNMDPVDTATYYCARNKGTRPVFDYWGQGTTVTVSS
VL: DIQMTQSPSSLSASVGDRVTITCRASENIYSYLAWYQQKPGKAPKLLIYNAKTLAEGVPSRFSGSGSGTDFTLTISSLQPEDFATYYCQHYVSPLTFGQGTKLEIK
notes: also called humanized antibody of IL4R-CHI-18, H5 + L1
B8: IL4R-hum-04H7L1 (antibody, V domains shown)
VH: EVQLQESGPGLVKPSETLSLTCTVSGYSISSDYAWNWIRQPPGKGLEWIGYISYSGSSSYNPSLKSRVTISVDTSKNQFSLKLSSVTAADTAVYYCARGGLRRRGLFDYWGQGTTVTVSS
VL: DIQLTQSPSFLSASVGDRVTITCRATSSVTYMHWYQQKPGKAPKPWIYATSNLASGVPSRFSGSGSGTEFTLTISSLQPEDFATYYCQQWSSIPLTFGQGTKLEIK
notes: also called humanized antibody of IL4R-CHI-04, H7 + L1
B9: IL4R-hum-14L2H2 (antibody, V domains shown)
VH: B2 VH with M3Q, K13Q, K19R, T40A, T78S, S84N, S88A, L93V, F95Y, T109Q
VL: DIQMTQSPSSLSASVGDRVTITCKASEDLYNRLAWYQQKPGKAPKLLISGATSLETGVPSRFSGSGSGRDFTLTISSLQPEDFATYYCQQYWRNPYTFGGGTKVEIK
notes: also called humanized antibody of IL4R-CHI-14, L2 + H2
B10: IL4R-hum-13H1aL2a (antibody, V domains shown)
VH: EVQLVQSGAEVKKPGASVKVSCKASGYTFTDYYMNWVRQAPGQRLEWMGTINPYNAGTGYNQKFKGRVTITVDKSASTAYMELSSLRSEDTAVYYCARSLLRRRGAMDYWGQGTTVTVSS
VL: DIVLTQSPDSLAVSLGERATINCRASKSVSTSGYGYIHWYQQKPGQPPKLLIYLVDNLESGVPDRFSGSGSGTDFTLTISSLQAEDVATYYCQHIRELYTFGGGTKVEIK
notes: also called humanized antibody of IL4R-CHI-13, H1a + L2a
B11: IL4R-hum-07H1L3 (antibody, V domains shown)
VH: EVQLVQSGAEVKKPGSSVKVSCKASGYTFSEYTIHWVRQAPGQGLEWMGWFYPGRGSIKYNEKFKDRVTITADKSTSTAYMELSSLRSEDTAVYYCTRHEYRGSNYAMDYWGQGTTVTVSS
VL: DIVMTQSPDSLAVSLGERATINCRSSQSIVHSSGNTYLQWYQQKPGQSPKLLIYKVSNRFSGVPDRFSGSGSGTDFTLTISSLQAEDVAVYYCFQGSHVPPTFGGGTKVEIK
notes: also called IL4AR-hum-07H1L3; humanized antibody of IL4R-CHI-07, H1 + L3
B12: IL4R-hum-17L1H4 (antibody, V domains shown)
VH: EVQLVQSGAEVKKPGASVKVSCKASGYTFTSYNMHWARQAPGQRLEWMGSIYPGNGDTSYNQKFKGRVTITVDKSASTAYMELSSLRSEDTAVYYCARGGRLRRGDWFAYWGQGTLVTVSS
VL: DIQMTQSPSSLSASVGDRVTITCRASENIYSYLIWYQQKPGKSPKLLIYDAKTLAEGVPSRFSGSGSGTDFTLTISSLQPEDFATYYCQHHYGTPLTFGGGTKVEIK
notes: also called humanized antibody of IL4R-CHI-17, L1 + H4

Each binder was assayed against T1, hIL4Rα-ECD(26-232)-His (human, UniProt P24394 26-232) (assay: SPR (Biacore 8K), antibody captured on Protein A, antigen as analyte, 1:1 model).
T1 construct: Labelled with biotin (NH2-reactive) for the ELISA; unlabelled as analyte in Biacore; also called hIL4Rα-ECD-His

Row | Binder | Kd [nM]
1 | B1 | 0.289
2 | B2 | 0.097
3 | B3 | 0.0779
4 | B4 | 0.513
5 | B5 | 0.0943
6 | B6 | 0.294

Target: T1, hIL4Rα-ECD(26-232)-His
Experiment: as above
Remark: another data set of the same source

Row | Binder | Kd [nM] | koff [s⁻¹] | kon [M⁻¹ s⁻¹]
7 | B7 | 0.0763 | 0.000151 | 1.98e+06
8 | B8 | 0.233 | 0.000445 | 1.91e+06
9 | B9 | 0.154 | 5.07e-05 | 329000
10 | B10 | 0.0692 | 9.25e-05 | 1.34e+06
11 | B11 | 0.315 | 0.000468 | 1.48e+06
12 | B12 | 0.283 | 0.000302 | 1.07e+06

What follows are binders tested against T2, hIL4Rα-ECD(26-232)-mFc (human) (assay: competition ELISA, hIL4R-ECD-mFc captured by anti-mFc, biotinylated human IL4 as competitor).
T2 construct: also called IL4Rα-ECD protein

Row | Binder | IC50 [nM]
13 | B7 | 2.39
14 | B8 | 1.52
15 | B9 | 2.2
16 | B10 | 1.92
17 | B11 | 1.41
18 | B12 | 1.82
